Reference: PMC4148193, “Chromatin Insulator Factors Involved in Long-Range DNA Interactions and Their Role in the Folding of the Drosophila Genome” (PLoS Genetics, 2014)

Legend:
CP190-C = target: T1, CP190-C (Drosophila, UniProt Q24478 599-1096); test: FCS; 50 nM; FA/FCS: 30 mM Tris/HCl pH 7.5, 100 mM NaCl, 20 uM ZnSO4, 5 mM mercaptoethanol, 0.01 mg/ml BSA, 0.004% Tween20, 2.5 nM DNA; EMSA: 150 mM NaCl, 30 mM Tris/HCl pH; details: protein: recombinant; tags: N-term 6xHis; blunt
T1 sequence: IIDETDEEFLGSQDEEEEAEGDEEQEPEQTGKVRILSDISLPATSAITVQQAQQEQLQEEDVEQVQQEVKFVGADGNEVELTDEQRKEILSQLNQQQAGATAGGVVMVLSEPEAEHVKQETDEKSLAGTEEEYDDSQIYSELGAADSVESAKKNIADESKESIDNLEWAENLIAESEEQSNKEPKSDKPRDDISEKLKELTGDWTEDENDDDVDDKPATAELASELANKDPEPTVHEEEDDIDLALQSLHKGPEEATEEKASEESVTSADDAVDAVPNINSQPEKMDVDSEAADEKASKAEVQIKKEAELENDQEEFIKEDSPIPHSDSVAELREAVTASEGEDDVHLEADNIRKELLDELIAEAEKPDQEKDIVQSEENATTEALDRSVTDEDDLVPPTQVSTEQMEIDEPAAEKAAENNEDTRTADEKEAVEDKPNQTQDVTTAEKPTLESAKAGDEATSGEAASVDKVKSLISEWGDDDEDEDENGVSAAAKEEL

BEAF32 (BEAF32B) [1] = target: T2, BEAF32 (BEAF32B) (Drosophila, UniProt Q94513 1-282); test: competition; unlabeled DNAS vs 2.5 nM Cy3B-DNAS, 100 nM BEAF32; FA/FCS: 30 mM Tris/HCl pH 7.5, 100 mM NaCl, 20 uM ZnSO4, 5 mM mercaptoethanol, 0.01 mg/ml BSA, 0.004% Tween20, 2.5 nM DNA; EMSA: 150 mM NaCl, 30 mM Tris/HCl pH; details: protein: recombinant; tags: N-term MBP; C-term 6xHis; blunt
T2 sequence: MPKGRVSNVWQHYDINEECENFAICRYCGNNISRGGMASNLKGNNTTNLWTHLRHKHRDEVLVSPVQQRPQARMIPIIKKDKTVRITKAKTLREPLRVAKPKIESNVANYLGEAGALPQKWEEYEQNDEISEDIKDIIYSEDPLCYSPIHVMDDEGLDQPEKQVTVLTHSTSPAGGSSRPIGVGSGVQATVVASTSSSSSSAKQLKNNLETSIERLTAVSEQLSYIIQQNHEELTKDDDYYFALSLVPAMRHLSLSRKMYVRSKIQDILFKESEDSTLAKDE

BEAF32 (BEAF32B) [2] = target: T2, BEAF32 (BEAF32B); test: fluorescence anisotropy; Hill n=3±0.4; 20 uM ZnSO4; FA/FCS: 30 mM Tris/HCl pH 7.5, 100 mM NaCl, 20 uM ZnSO4, 5 mM mercaptoethanol, 0.01 mg/ml BSA, 0.004% Tween20, 2.5 nM DNA; EMSA: 150 mM NaCl, 30 mM Tris/HCl pH; details: protein: recombinant; tags: N-term MBP; C-term 6xHis; blunt
Chromator = target: T3, Chromator (Drosophila, UniProt Q86BS3 1-926); test: competition; unlabeled DNAS vs 2.5 nM Cy3B-DNAS, 638 nM Chromator; FA/FCS: 30 mM Tris/HCl pH 7.5, 100 mM NaCl, 20 uM ZnSO4, 5 mM mercaptoethanol, 0.01 mg/ml BSA, 0.004% Tween20, 2.5 nM DNA; EMSA: 150 mM NaCl, 30 mM Tris/HCl pH; details: protein: recombinant; tags: N-term 6xHis; blunt
T3 sequence: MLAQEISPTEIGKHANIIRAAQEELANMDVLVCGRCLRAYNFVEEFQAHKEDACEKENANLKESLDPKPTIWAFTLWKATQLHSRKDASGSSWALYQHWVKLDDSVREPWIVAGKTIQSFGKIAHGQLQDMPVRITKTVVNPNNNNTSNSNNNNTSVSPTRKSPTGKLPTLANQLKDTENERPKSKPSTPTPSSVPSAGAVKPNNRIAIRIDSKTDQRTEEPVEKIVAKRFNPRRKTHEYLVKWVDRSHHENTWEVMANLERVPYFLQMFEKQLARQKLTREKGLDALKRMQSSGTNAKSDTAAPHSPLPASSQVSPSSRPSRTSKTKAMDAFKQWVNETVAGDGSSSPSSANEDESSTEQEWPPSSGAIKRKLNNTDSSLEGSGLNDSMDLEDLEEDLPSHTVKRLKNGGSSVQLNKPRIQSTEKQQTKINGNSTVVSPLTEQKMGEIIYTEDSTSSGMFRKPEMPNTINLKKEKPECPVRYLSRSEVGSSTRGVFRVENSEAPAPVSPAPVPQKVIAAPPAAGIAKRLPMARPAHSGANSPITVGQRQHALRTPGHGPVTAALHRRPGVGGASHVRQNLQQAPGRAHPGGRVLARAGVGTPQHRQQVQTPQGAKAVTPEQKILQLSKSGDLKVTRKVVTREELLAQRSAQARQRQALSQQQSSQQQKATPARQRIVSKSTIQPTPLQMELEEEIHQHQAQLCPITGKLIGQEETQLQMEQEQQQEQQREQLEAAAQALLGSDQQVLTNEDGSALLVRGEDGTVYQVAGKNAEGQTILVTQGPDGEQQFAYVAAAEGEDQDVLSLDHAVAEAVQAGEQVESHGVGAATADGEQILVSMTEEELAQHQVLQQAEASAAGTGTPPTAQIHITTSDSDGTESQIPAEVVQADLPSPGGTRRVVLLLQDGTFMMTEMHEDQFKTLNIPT

B1: DNAS (dsDNA)
DNA 1: AGAAGTCAGCGCGATAGCATCGATATTTTCGTGACACGCTTGTCATCCGATAGGTAGT
DNA 2: ACTACCTATCGGATGACAAGCGTGTCACGAAAATATCGATGCTATCGCGCTGACTTCT
**Q.** Which results are given for B1?
**A.** binding result (CP190-C): no binding; Ki (BEAF32 (BEAF32B) [1]): 20 ± 4 nM; Kd (BEAF32 (BEAF32B) [2]): 68 ± 5 nM; Ki (Chromator): 514 ± 360 nM
